# According to PMC9582512:
# pKd: −log10 of the molar value.
# Target: human recombinant biotinylated FcγRIIb (CD32b) (human) (UniProt P31994)
# Test: BLI
# Chain of human recombinant biotinylated FcγRIIb (CD32b) (human) (P31994 43-217): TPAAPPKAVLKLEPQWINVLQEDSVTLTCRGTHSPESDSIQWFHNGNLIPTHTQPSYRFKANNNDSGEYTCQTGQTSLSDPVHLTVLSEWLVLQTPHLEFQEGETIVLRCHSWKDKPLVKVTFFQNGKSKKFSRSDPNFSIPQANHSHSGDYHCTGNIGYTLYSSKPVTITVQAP
# Chain of recombinant anti-Fel d 1 monoclonal antibody F127, human IgG4 format (P01861 whole entry, looked up): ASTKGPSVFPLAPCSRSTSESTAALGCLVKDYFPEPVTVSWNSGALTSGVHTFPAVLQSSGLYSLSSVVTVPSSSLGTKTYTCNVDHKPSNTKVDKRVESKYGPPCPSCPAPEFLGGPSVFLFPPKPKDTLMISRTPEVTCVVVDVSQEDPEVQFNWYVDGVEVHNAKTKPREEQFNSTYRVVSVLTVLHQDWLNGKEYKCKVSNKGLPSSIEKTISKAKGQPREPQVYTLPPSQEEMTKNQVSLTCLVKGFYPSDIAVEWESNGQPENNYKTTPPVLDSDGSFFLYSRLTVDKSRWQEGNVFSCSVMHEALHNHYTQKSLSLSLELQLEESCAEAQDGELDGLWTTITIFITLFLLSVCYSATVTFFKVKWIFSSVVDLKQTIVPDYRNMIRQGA
# Chain of native human IgG4 (P01861 whole entry, looked up): as above
# Chain of recombinant anti-Fel d 1 monoclonal antibody A044, human IgG4 format (P01861 whole entry, looked up): as above
# Chain of recombinant anti-Fel d 1 monoclonal antibody G078, human IgG4 format (P01861 whole entry, looked up): as above
pKd,koff,Substance
7.74,0.00081 s⁻¹,"recombinant anti-Fel d 1 monoclonal antibody A044, human IgG4 format (from UniProt P01861)"
7.57,,"recombinant anti-Fel d 1 monoclonal antibody F127, human IgG1 format (from UniProt P01857)"
7.57,0.0014 s⁻¹,"recombinant anti-Fel d 1 monoclonal antibody F127, human IgG4 format (from UniProt P01861)"

# The next lines start with the substance.
Substance,pKd,koff
native human IgG4 (from UniProt P01861),7.51,0.002 s⁻¹
"recombinant anti-Fel d 1 monoclonal antibody A044, human IgG1 format (from UniProt P01857)",7.74,
"recombinant anti-Fel d 1 monoclonal antibody G078, human IgG4 format (from UniProt P01861)",7.47,0.0016 s⁻¹

# Target: human recombinant biotinylated FcγRIIb (CD32b) (human) (UniProt P31994)
# Test: BLI
# Remark: another data set of the same source
row,koff,Substance
1,0.00126 s⁻¹,"recombinant anti-Fel d 1 monoclonal antibody F127, human IgG4 format (from UniProt P01861)"
